{
  "source": "patent US20100190693",
  "key": {"[1]": {"target": "T1, GST-TORC2 (aa 161-181), wild-type, Q53ET0 (not fully specified)", "T1 chain": "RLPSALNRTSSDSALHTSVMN"}, "[2]": {"target": "GST-TORC2 (aa 161-181) Ser171Ala, Q53ET0", "sequence (Q53ET0 whole entry S171A, looked up, the tested form may be a part)": "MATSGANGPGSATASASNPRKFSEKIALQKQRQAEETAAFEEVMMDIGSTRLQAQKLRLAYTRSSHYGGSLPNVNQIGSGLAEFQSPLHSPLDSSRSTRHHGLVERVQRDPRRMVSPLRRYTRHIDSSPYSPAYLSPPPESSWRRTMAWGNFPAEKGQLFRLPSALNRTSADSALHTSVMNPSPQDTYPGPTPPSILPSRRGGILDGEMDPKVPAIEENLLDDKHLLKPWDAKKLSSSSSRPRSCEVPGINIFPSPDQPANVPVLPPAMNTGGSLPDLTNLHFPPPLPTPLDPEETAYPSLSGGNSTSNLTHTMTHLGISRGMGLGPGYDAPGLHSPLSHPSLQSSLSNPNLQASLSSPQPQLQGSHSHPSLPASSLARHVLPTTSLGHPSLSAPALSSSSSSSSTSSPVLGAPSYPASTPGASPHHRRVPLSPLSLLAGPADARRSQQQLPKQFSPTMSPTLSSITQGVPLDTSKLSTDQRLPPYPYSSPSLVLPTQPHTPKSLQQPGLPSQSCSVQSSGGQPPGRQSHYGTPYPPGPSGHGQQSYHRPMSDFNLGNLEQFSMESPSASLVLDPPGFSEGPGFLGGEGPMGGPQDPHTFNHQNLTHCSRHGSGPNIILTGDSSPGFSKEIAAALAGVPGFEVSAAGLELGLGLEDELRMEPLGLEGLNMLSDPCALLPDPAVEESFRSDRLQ"}},
  "data": [
    {"protein": "Salt Inducible Kinase 2 (SIK2) (protein) MVMADGPRHLQRGPVRVGFYDIEGTLGKGNFAVVKLGRHRITKTEVAIKIIDKSQLDAVNLEKIYREVQIMKMLDHPHIIKLYQVMETKSMLYLVTEYAKNGEIFDYLANHGRLNESEARRKFWQILSAVDYCHGRKIVHRDLKAENLLLDNNMNIKIADFGFGNFFKSGELLATWCGSPPYAAPEVFEGQQYEGPQLDIWSMGVVLYVLVCGALPFDGPTLPILRQRVLEGRFRIPYFMSEDCEHLIRRMLVLDPSKRLTIAQIKEHKWMLIEVPVQRPVLYPQEQENEPSIGEFNEQVLRLMHSLGIDQQKTIESLQNKSYNHFAAIYFLLVERLKSHRSSFPVEQRLDGRQRRPSTIAEQTVAKAQTVGLPVTMHSPNMRLLRSALLPQASNVEAFSFPASGCQAEAAFMEEECVDTPKVNGCLLDPVPPVLVRKGCQSLPSNMMETSIDEGLETEGEAEEDPAHAFEAFQSTRSGQRRHTLSEVTNQLVVMPGAGKIFSMNDSPSLDSVDSEYDMGSVQRDLNFLEDNPSLKDIMLANQPSPRMTSPFISLRPTNPAMQALSSQKREVHNRSPVSFREGRRASDTSLTQGIVAFRQHLQNLARTKGILELNKVQLLYEQIGPEADPNLAPAAPQLQDLASSCPQEEVSQQQESVSTLPASVHPQLSPRQSLETQYLQHRLQKPSLLSKAQNTCQLYCKEPPRSLEQQLQEHRLQQKRLFLQKQSQLQAYFNQMQIAESSYPQPSQQLPLPRQETPPPSQQAPPFSLTQPLSPVLEPSSEQMQYSPFLSQYQEMQLQPLPSTSGPRAAPPLPTQLQQQQPPPPPPPPPPRQPGAAPAPLQFSYQTCELPSAASPAPDYPTPCQYPVDGAQQSDLTGPDCPRSPGLQEAPSSYDPLALSELPGLFDCEMLDAVDPQHNGYVLVN", "values": [
      {"measurement": "in vitro kinase assay, 32P-labeling", "setting": "[1]", "result": "SIK2 was found to phosphorylate wild-type but not Ser171Ala mutant TORC2 in vitro"},
      {"measurement": "in vitro kinase assay, 32P-labeling", "setting": "[2]", "result": "SIK2 was found to phosphorylate wild-type but not Ser171Ala mutant TORC2 in vitro"}
    ]}
  ]
}
